From the supplement of paper PMC7125110
± gives the standard error. Variants at the floor of the assay were thinned out.

B1: glmS ribozyme (parent)
chain: AUAAAAGCGCCAGAACUACAGAAAUGUAGUUGACGAGGAGGAGGUUUAUCGAAUUUUCGGCGGAUGCCUCCAAA

Columns and labels:
Details in all cases: with glucosamine-6-phosphate
[1] = variants of: B1; assay: self-cleavage kobs at 40 uM GlcN6P; higher = faster cleavage; RNA array
Summary of the method: (§1)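 Weighted Michaelis–Menten fits across concentrations supplied kcat and KM, based on kobs from one- or two-exponential decay fits to normalised per-tile medians. The data came from barcoded ribozyme variants transcribed in situ by E. coli RNA polymerase on sequenced MiSeq chips and tracked at 37 °C by a hybridised Cy3 probe. Glucosamine-6-phosphate (40 μM to 10 mM) in HEPES/KCl/Mg(OAc)2 buffer was flowed in.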

[2] = variants of: B1; assay: self-cleavage kobs at 160 uM GlcN6P; higher = faster cleavage; RNA array
Summary of the method: as §1

[3] = variants of: B1; assay: self-cleavage kobs at 640 uM GlcN6P; higher = faster cleavage; RNA array
Summary of the method: as §1

[4] = variants of: B1; assay: self-cleavage kobs at 2500 uM GlcN6P; higher = faster cleavage; RNA array
Summary of the method: as §1

[5] = variants of: B1; assay: self-cleavage kobs at 10000 uM GlcN6P; higher = faster cleavage; RNA array
Summary of the method: as §1

Variant | self-cleavage kobs at 40 uM GlcN6P [1] [s⁻¹] | self-cleavage kobs at 160 uM GlcN6P [2] [s⁻¹] | self-cleavage kobs at 640 uM GlcN6P [3] [s⁻¹] | self-cleavage kobs at 2500 uM GlcN6P [4] [s⁻¹] | self-cleavage kobs at 10000 uM GlcN6P [5] [s⁻¹]
AUAAAAGCGCCAGUACUACAGAAAUGUAGUUGACGGGGAGGAGGUUUAUUGAAUUUUCGGAGGAUGCCUCCAAA [A14U A36G C50U C61A] | < 1e-05 | – | – | – | –
AUAAAAGCGCCAGGACUACAGAAAUGUAGUUGACGAGGAAGAGGUUUAUCGAAUUUUCGGCGGAUGCCUCCAAA [A14G G40A] | 0.000801 ± 0.00011 | 0.00119 ± 0.00039 | 0.0045 ± 0.00098 | 0.00484 ± 0.0011 | 0.0666 ± 0.029
AUAAAAGCGCCAGUACUACAGAAAUGUAGUUGACGAGGAGGAGGUUUAUCGAGUUUUCGGCGGAUGCCUCCAAA [A14U A53G] | 0.000202 ± 2.5e-05 | 0.000311 ± 5.2e-05 | 0.00204 ± 0.00026 | 0.00365 ± 0.00059 | 0.00969 ± 0.0011
AUAAAAGCGCCAGUACUACAGAAAUGUAGUUGACGCGGAGGAGGUUUAUCGAAUUUUCGGCGGAUGCCUCCAAA [A14U A36C] | < 1e-05 | – | < 1e-05 | – | < 1e-05
AUAAAAGCGCCAGUACUACAGAAAUGUAGUUGACGAGGAGGAGGUUUCUCCAAUUUUCGGCGGAGGCCUCCAAA [A14U A48C G51C U65G] | < 1e-05 | – | – | – | < 1e-05
AUAAAAGCGCCAGUGCUACAGAAAUGUAGUUGACGAGGAGGACGUUUAUCGAAUUUUCGGCGGAUGCCUCCAAA [A14U A15G G43C] | < 1e-05 | – | < 1e-05 | < 1e-05 | –
AUAAAAGCGCCAGUCCUACAGAAAUGUAGUUGCCGAGGAGGAGGUUUAUCGAAUUUUCGGCGGAUGCCUGCAAA [A14U A15C A33C C70G] | < 1e-05 | – | – | – | –
AUAAAAGCGCCAGUACUACAGAAAUGUAGUUGACGAGGAGGAGGUUUAUCGAUUUUUCGGCGGAUGCCUCUAAA [A14U A53U C71U] | 9.83e-05 ± 2.7e-05 | 0.00021 ± 4.5e-05 | 0.000509 ± 8.6e-05 | 0.00145 ± 0.00032 | 0.00546 ± 0.0013
AUAAAAGCGCCAGUACUACAGAAAUGUAGUUCACGAGGAGGAGGUUUAUAGAAUUUUCGGCGGAUGCGUCCAAA [A14U G32C C50A C68G] | 8.36e-05 ± 3e-05 | – | 0.000278 ± 7.7e-05 | 0.000126 ± 6e-05 | 7.34e-05 ± 2.2e-05
AUAAAAGCGCCAGUACUACAGAAAUGUAGUUGACCAGGAGGAGGUUUAUCGAAUUUUCGGCGGAUGCCUCCAAA [A14U G35C] | < 1e-05 | < 1e-05 | < 1e-05 | < 1e-05 | < 1e-05
AUAAAAGCGCCAGGACUACAGAAAUGUAGUUGACGAGGAGGAGGUUUAUCCACUUUUCGGCGGAUGCCUCCAAA [A14G G51C A53C] | < 1e-05 | – | – | – | –
AUAAAAGCGCCAGGACUACAGAAAUGUAGUUGACGAGGAUGAGGUUUAUGGAAUUUUCGGCGGAUGCCUCCAAA [A14G G40U C50G] | < 1e-05 | – | – | – | –
AUAAAAGCGCCAGGACUACAGAAAUGUAGUUGACGAGGAGGAGGUUGAUCGAAUUUUCGGCGGAUGCCUCCAAA [A14G U47G] | 0.00069 ± 9.9e-05 | 0.00132 ± 0.0004 | 0.00356 ± 0.00073 | 0.0139 ± 0.0037 | 0.0324 ± 0.0073
AUAAAAGCGCCAGGACUACAGAAAUGUAGUUGACGAGGAGGAGGUUUAUCGAAUCUUCGGCGGAUGCCUUCAAA [A14G U55C C70U] | 6.64e-05 ± 2.1e-05 | – | – | – | 0.00236 ± 0.00041
AUAAAAGCGCCAGGACUACAGAAAUGUAGUUGACGAGGAGGAGGUUUAUCGAAUUUUCAGCGGAGACCUCCAAA [A14G G59A U65G G66A] | < 1e-05 | – | – | < 1e-05 | –
AUAAAAGCGCCAGGACUACAGAAAUGUAGUUGACGAAGAGGAGGUUUAUCGAAUUUUCGGCGUAUGCCUCCAAA [A14G G37A G63U] | < 1e-05 | – | – | – | < 1e-05
AUAAAAGCGCCAGGACUACAGAAAUGUAGUUGACGAGGAGGAGGUUUAUCGAAUCUUCGGCGGCUGCCUCCAAA [A14G U55C A64C] | < 1e-05 | – | – | – | –
AUAAAAGCGCCAGUACUACAGAAAUGUAGUUGACGAGGAGGAGGUUUAUGGAAUUUUCGGCGGAUGUCUCCAAA [A14U C50G C67U] | 0.00027 ± 6.3e-05 | 0.000222 ± 7e-05 | 0.000192 ± 5.6e-05 | 0.000193 ± 5.8e-05 | 0.000112 ± 1.9e-05
AUAAAAGCGCCAGGACUACAGAAAUGUAGUUGACGAGGAUGAGGUUUAUCGAAUUUUGGACGGAUGCCUCCAAA [A14G G40U C58G G60A] | < 1e-05 | – | – | < 1e-05 | –
AUAAAAGCGCCAGGACUACAGAAAUGUAGAUGACGAGGAGGAGGUUUAUCGAAUUUUCGGCGGAUGCCUCCAAA [A14G U30A] | 0.000672 ± 0.00011 | 0.00098 ± 0.00024 | 0.00759 ± 0.0013 | 0.0384 ± 0.012 | 0.017 ± 0.0042
AUAAAAGCGCCAGGACUACAGAAAUGUAGUUGACGAGGAGAAGGUUUAUCGAAUUUUCGGCGGAUGUCUCCAAA [A14G G41A C67U] | < 1e-05 | – | – | – | –
AUAAAAGCGCCAGUACUACAGAAAUGUAGUUGGCGAGUAGGAGGUUUAUCGAAUUUUCGGCGGAUGCCUCAAAA [A14U A33G G38U C71A] | < 1e-05 | – | – | – | –
AUAAAAGCGCCAGUACUACAGAAAUGUAGUUGACGAGGAGGAGGUUUAUCGAAUUUUCGGCGGAUGCCUUCAAA [A14U C70U] | 0.000285 ± 2.5e-05 | 0.000441 ± 6.1e-05 | 0.00104 ± 0.00018 | 0.00724 ± 0.0015 | –
AUAAAAGCGCCAGGACUACAGAAAUGUAGUUGACGAGGAGGAGGUUUAUCGAAUUUUCGGCGGAUGCCACCAAA [A14G U69A] | 0.000118 ± 2.8e-05 | 0.000124 ± 2.5e-05 | 0.000315 ± 9.3e-05 | 0.000142 ± 2.2e-05 | 0.000397 ± 9.9e-05
AUAAAAGCGCCAGGACUACAGAAAUGUAGUUGACGAGGAGGAGGGUUAUCGAAUUUUCGGCGGUUGCCUCCAAA [A14G U45G A64U] | < 1e-05 | – | – | – | –
AUAAAAGCGCCAGGACUACAGAAAUGUAGUUGACGAGGAAGAGGUUUAUCGAUUUUUCGGCGGAUGCCUCCAAA [A14G G40A A53U] | 0.000596 ± 0.00013 | – | – | – | 0.0182 ± 0.004
